Results taken from PMC12416549 (2024).
Residue numbers refer to the chain shown, from its start. Names may count otherwise.

B1: E92W (designed binder)
chain: SMEEEVEKAAKEYEKKKKEAIEKHLEKLKAKDKEAAERFLKELEEAAKEYAKDEAKTMSEEEAKRRAKKYKEKVLLSELSEEEQKEIKEAEWKLVRTILKYVEEAAK
B2: Y101S (designed binder)
chain: B1 chain with W92E, Y101S
B3: R65E (designed binder)
chain: B1 chain with R65E, W92E
B4: L25I (designed binder)
chain: B1 chain with L25I, W92E
B5: L76F (designed binder)
chain: B1 chain with L76F, W92E
B6: E7P (designed binder)
chain: B1 chain with E7P, W92E
B7: A51V (designed binder)
chain: B1 chain with A51V, W92E
B8: A9G (designed binder)
chain: B1 chain with A9G, W92E
B9: K11F (designed binder)
chain: B1 chain with K11F, W92E
B10: E3G (designed binder)
chain: B1 chain with E3G, W92E
B11: E44S (designed binder)
chain: B1 chain with E44S, W92E
B12: E14Y (designed binder)
chain: B1 chain with E14Y, W92E
B13: K41L (designed binder)
chain: B1 chain with K41L, W92E
B14: I87V (designed binder)
chain: B1 chain with I87V, W92E
B15: Q84H (designed binder)
chain: B1 chain with Q84H, W92E
B16: E37H (designed binder)
chain: B1 chain with E37H, W92E
B17: R65D (designed binder)
chain: B1 chain with R65D, W92E
B18: L43H (designed binder)
chain: B1 chain with L43H, W92E
B19: E83W (designed binder)
chain: B1 chain with E83W, W92E
B20: M58N (designed binder)
chain: B1 chain with M58N, W92E
B21: A67L (designed binder)
chain: B1 chain with A67L, W92E
B22: E5M (designed binder)
chain: B1 chain with E5M, W92E
B23: E72W (designed binder)
chain: B1 chain with E72W, W92E
B24: A51H (designed binder)
chain: B1 chain with A51H, W92E

Biological target: T1, TNFR1 (Homo sapiens, UniProt P19438)
T1 chain: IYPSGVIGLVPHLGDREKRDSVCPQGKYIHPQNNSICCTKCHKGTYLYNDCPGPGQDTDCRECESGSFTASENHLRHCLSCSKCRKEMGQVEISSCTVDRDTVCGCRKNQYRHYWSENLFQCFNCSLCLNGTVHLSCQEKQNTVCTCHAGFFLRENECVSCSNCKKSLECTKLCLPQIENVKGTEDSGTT
Assay: yeast display SC50

Binder | apparent Kd (screen) [nM]
B1 | 10.4
B2 | 0.956
B3 | 1.54
B4 | 0.956
B5 | 0.539
B6 | 1.4
B7 | 9.41
B8 | 1.05
B9 | 0.49
B10 | 3
B11 | 1.86
B12 | 10.4
B13 | 0.446
B14 | 3
B15 | 3.3
B16 | 0.446
B17 | 0.405
B18 | 3.63
B19 | 2.25
B20 | 13.8
B21 | 7.78
B22 | 0.446
B23 | 0.446
B24 | 0.49
